Publication PMC10786891, “Massively parallel profiling of RNA-targeting CRISPR-Cas13d”

T1: EsCas13d, nuclease-dead (Eubacterium siraeum, UniProt B0MS50, R295A;H300A;R849A;H854A)
T1 sequence: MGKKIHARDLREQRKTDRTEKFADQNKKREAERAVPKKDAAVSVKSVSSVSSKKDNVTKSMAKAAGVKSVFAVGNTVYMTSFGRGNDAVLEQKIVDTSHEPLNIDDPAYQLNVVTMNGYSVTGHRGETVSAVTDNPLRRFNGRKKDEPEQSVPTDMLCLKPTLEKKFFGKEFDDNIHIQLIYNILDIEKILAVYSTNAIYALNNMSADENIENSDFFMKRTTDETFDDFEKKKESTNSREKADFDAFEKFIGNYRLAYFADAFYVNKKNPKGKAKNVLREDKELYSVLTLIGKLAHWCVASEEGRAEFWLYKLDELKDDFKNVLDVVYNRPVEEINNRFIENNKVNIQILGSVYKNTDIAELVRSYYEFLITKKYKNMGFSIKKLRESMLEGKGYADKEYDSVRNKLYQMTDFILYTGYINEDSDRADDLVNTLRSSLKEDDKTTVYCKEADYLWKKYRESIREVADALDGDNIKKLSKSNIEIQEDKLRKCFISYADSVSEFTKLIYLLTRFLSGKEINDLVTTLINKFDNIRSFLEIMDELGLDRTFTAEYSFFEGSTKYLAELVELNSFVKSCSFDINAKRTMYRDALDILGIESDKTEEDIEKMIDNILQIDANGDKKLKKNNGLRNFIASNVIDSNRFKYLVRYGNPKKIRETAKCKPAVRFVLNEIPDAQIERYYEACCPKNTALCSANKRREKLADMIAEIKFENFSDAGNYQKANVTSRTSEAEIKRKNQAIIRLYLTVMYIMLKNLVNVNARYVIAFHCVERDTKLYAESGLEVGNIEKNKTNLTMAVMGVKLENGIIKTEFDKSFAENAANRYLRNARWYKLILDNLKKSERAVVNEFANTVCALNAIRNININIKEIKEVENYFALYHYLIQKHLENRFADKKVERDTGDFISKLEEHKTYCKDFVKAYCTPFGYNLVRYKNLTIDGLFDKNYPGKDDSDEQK


Molecular target: T1, EsCas13d, nuclease-dead
Assay: crRNA (strand 1, pre-loaded); Mg2+; 40 mM Tris-HCl pH 7.5, 150 mM NaCl, 6 mM MgCl2, 1 mM DTT, 0.1% Tween-20, 0.2 mg/ml BSA; 25 C; 10 min per concentration, then washed
Settings: tags: His6-TwinStrep-SUMO cleaved; N-terminal SNAP kept (SNAP-Surface 488); label: 3' end held by stalled T7 RNA polymerase

Binder	Kd [nM]
target 1 MT 5'PFS GUG 3'PFS AAU (mixed) RNA 1: CACCCGUGCAAAAAUGCAGGGGUCUAAAACUGAGCGGAUAACCUCUCUAUGG RNA 2: GGGAAUGGAUCCACAUCUACGAAUUCGUGCCAUAGAGAGGUUAUCCGCUCAAAUAGAUCGGAAGAGCACACGU	22.1 ± 1.75
target 1 MT 5'PFS GCU 3'PFS UUU (mixed) RNA 1: CACCCGUGCAAAAAUGCAGGGGUCUAAAACUGAGCGGAUAACCUCUCUAUGG RNA 2: GGGAAUGGAUCCACAUCUACGAAUUCGCUCCAUAGAGAGGUUAUCCGCUCAUUUAGAUCGGAAGAGCACACGU	24.1 ± 3.8
target 1 MT 5'PFS GUA 3'PFS GGA (mixed) RNA 1: CACCCGUGCAAAAAUGCAGGGGUCUAAAACUGAGCGGAUAACCUCUCUAUGG RNA 2: GGGAAUGGAUCCACAUCUACGAAUUCGUACCAUAGAGAGGUUAUCCGCUCAGGAAGAUCGGAAGAGCACACGU	15.8 ± 2.45
target 1 MT 5'PFS GAC 3'PFS UUA (mixed) RNA 1: CACCCGUGCAAAAAUGCAGGGGUCUAAAACUGAGCGGAUAACCUCUCUAUGG RNA 2: GGGAAUGGAUCCACAUCUACGAAUUCGACCCAUAGAGAGGUUAUCCGCUCAUUAAGAUCGGAAGAGCACACGU	13.2 ± 4.3
target 1 MT 5'PFS GAC 3'PFS UUC (mixed) RNA 1: CACCCGUGCAAAAAUGCAGGGGUCUAAAACUGAGCGGAUAACCUCUCUAUGG RNA 2: GGGAAUGGAUCCACAUCUACGAAUUCGACCCAUAGAGAGGUUAUCCGCUCAUUCAGAUCGGAAGAGCACACGU	14.1 ± 4.25
target 1 MT 5'PFS GUA 3'PFS GGC (mixed) RNA 1: CACCCGUGCAAAAAUGCAGGGGUCUAAAACUGAGCGGAUAACCUCUCUAUGG RNA 2: GGGAAUGGAUCCACAUCUACGAAUUCGUACCAUAGAGAGGUUAUCCGCUCAGGCAGAUCGGAAGAGCACACGU	7.25 ± 0.95
target 1 MT 5'PFS GCU 3'PFS UUC (mixed) RNA 1: CACCCGUGCAAAAAUGCAGGGGUCUAAAACUGAGCGGAUAACCUCUCUAUGG RNA 2: GGGAAUGGAUCCACAUCUACGAAUUCGCUCCAUAGAGAGGUUAUCCGCUCAUUCAGAUCGGAAGAGCACACGU	36.5 ± 9
target 1 MT 5'PFS GAC 3'PFS UUU (mixed) RNA 1: CACCCGUGCAAAAAUGCAGGGGUCUAAAACUGAGCGGAUAACCUCUCUAUGG RNA 2: GGGAAUGGAUCCACAUCUACGAAUUCGACCCAUAGAGAGGUUAUCCGCUCAUUUAGAUCGGAAGAGCACACGU	11 ± 4.5
target 1 MT 5'PFS GAG 3'PFS AGA (mixed) RNA 1: CACCCGUGCAAAAAUGCAGGGGUCUAAAACUGAGCGGAUAACCUCUCUAUGG RNA 2: GGGAAUGGAUCCACAUCUACGAAUUCGAGCCAUAGAGAGGUUAUCCGCUCAAGAAGAUCGGAAGAGCACACGU	37 ± 13
target 1 MT 5'PFS GGA 3'PFS UCC (mixed) RNA 1: CACCCGUGCAAAAAUGCAGGGGUCUAAAACUGAGCGGAUAACCUCUCUAUGG RNA 2: GGGAAUGGAUCCACAUCUACGAAUUCGGACCAUAGAGAGGUUAUCCGCUCAUCCAGAUCGGAAGAGCACACGU	23 ± 7
target 1 MT 5'PFS GUA 3'PFS GGG (mixed) RNA 1: CACCCGUGCAAAAAUGCAGGGGUCUAAAACUGAGCGGAUAACCUCUCUAUGG RNA 2: GGGAAUGGAUCCACAUCUACGAAUUCGUACCAUAGAGAGGUUAUCCGCUCAGGGAGAUCGGAAGAGCACACGU	30.6 ± 3.7
target 1 MT 5'PFS AGG 3'PFS UUG (mixed) RNA 1: CACCCGUGCAAAAAUGCAGGGGUCUAAAACUGAGCGGAUAACCUCUCUAUGG RNA 2: GGGAAUGGAUCCACAUCUACGAAUUCAGGCCAUAGAGAGGUUAUCCGCUCAUUGAGAUCGGAAGAGCACACGU	40.5 ± 9.5
target 1 insG 3' of 10,insA 3' of 7 (mixed) RNA 1: CACCCGUGCAAAAAUGCAGGGGUCUAAAACUGAGCGGAUAACCUCUCUAUGG RNA 2: GGGAAUGGAUCCACAUCUACGAAUUCGUACCAUAGAGAGGUUGAUCACGCUCACCGAGAUCGGAAGAGCACACGU	15.3 ± 0.6
target 1 MT 5'PFS GUA 3'PFS UGU (mixed) RNA 1: CACCCGUGCAAAAAUGCAGGGGUCUAAAACUGAGCGGAUAACCUCUCUAUGG RNA 2: GGGAAUGGAUCCACAUCUACGAAUUCGUACCAUAGAGAGGUUAUCCGCUCAUGUAGAUCGGAAGAGCACACGU	19.1 ± 0.95
target 1 MT 5'PFS GUA 3'PFS GGU (mixed) RNA 1: CACCCGUGCAAAAAUGCAGGGGUCUAAAACUGAGCGGAUAACCUCUCUAUGG RNA 2: GGGAAUGGAUCCACAUCUACGAAUUCGUACCAUAGAGAGGUUAUCCGCUCAGGUAGAUCGGAAGAGCACACGU	20.7 ± 2
target 1 MT 5'PFS CAG 3'PFS CGU (mixed) RNA 1: CACCCGUGCAAAAAUGCAGGGGUCUAAAACUGAGCGGAUAACCUCUCUAUGG RNA 2: GGGAAUGGAUCCACAUCUACGAAUUCCAGCCAUAGAGAGGUUAUCCGCUCACGUAGAUCGGAAGAGCACACGU	29.5 ± 10
target 1 MT 5'PFS GCU 3'PFS UUG (mixed) RNA 1: CACCCGUGCAAAAAUGCAGGGGUCUAAAACUGAGCGGAUAACCUCUCUAUGG RNA 2: GGGAAUGGAUCCACAUCUACGAAUUCGCUCCAUAGAGAGGUUAUCCGCUCAUUGAGAUCGGAAGAGCACACGU	61 ± 23.5
target 1 MT 5'PFS CAA 3'PFS UCG (mixed) RNA 1: CACCCGUGCAAAAAUGCAGGGGUCUAAAACUGAGCGGAUAACCUCUCUAUGG RNA 2: GGGAAUGGAUCCACAUCUACGAAUUCCAACCAUAGAGAGGUUAUCCGCUCAUCGAGAUCGGAAGAGCACACGU	12.2 ± 3.6
target 1 insU 3' of 13,insA 3' of 13 (mixed) RNA 1: CACCCGUGCAAAAAUGCAGGGGUCUAAAACUGAGCGGAUAACCUCUCUAUGG RNA 2: GGGAAUGGAUCCACAUCUACGAAUUCGUACCAUAGAGAGUAGUUAUCCGCUCACCGAGAUCGGAAGAGCACACGU	4.35 ± 0.17
target 1 MT 5'PFS GGA 3'PFS CUA (mixed) RNA 1: CACCCGUGCAAAAAUGCAGGGGUCUAAAACUGAGCGGAUAACCUCUCUAUGG RNA 2: GGGAAUGGAUCCACAUCUACGAAUUCGGACCAUAGAGAGGUUAUCCGCUCACUAAGAUCGGAAGAGCACACGU	27 ± 6.5
target 1 MT 5'PFS GGA 3'PFS UCG (mixed) RNA 1: CACCCGUGCAAAAAUGCAGGGGUCUAAAACUGAGCGGAUAACCUCUCUAUGG RNA 2: GGGAAUGGAUCCACAUCUACGAAUUCGGACCAUAGAGAGGUUAUCCGCUCAUCGAGAUCGGAAGAGCACACGU	10.8 ± 1.2
target 1 G15C,A16U (mixed) RNA 1: CACCCGUGCAAAAAUGCAGGGGUCUAAAACUGAGCGGAUAACCUCUCUAUGG RNA 2: GGGAAUGGAUCCACAUCUACGAAUUCGUACCAUAGUCAGGUUAUCCGCUCACCGAGAUCGGAAGAGCACACGU	47 ± 4
target 1 MT 5'PFS GGA 3'PFS CUC (mixed) RNA 1: CACCCGUGCAAAAAUGCAGGGGUCUAAAACUGAGCGGAUAACCUCUCUAUGG RNA 2: GGGAAUGGAUCCACAUCUACGAAUUCGGACCAUAGAGAGGUUAUCCGCUCACUCAGAUCGGAAGAGCACACGU	47 ± 17.5
target 1 MT 5'PFS AGG 3'PFS UUC (mixed) RNA 1: CACCCGUGCAAAAAUGCAGGGGUCUAAAACUGAGCGGAUAACCUCUCUAUGG RNA 2: GGGAAUGGAUCCACAUCUACGAAUUCAGGCCAUAGAGAGGUUAUCCGCUCAUUCAGAUCGGAAGAGCACACGU	33 ± 11
target 1 MT 5'PFS GGA 3'PFS UCA (mixed) RNA 1: CACCCGUGCAAAAAUGCAGGGGUCUAAAACUGAGCGGAUAACCUCUCUAUGG RNA 2: GGGAAUGGAUCCACAUCUACGAAUUCGGACCAUAGAGAGGUUAUCCGCUCAUCAAGAUCGGAAGAGCACACGU	17.9 ± 5.7
target 1 MT 5'PFS GAC 3'PFS UUG (mixed) RNA 1: CACCCGUGCAAAAAUGCAGGGGUCUAAAACUGAGCGGAUAACCUCUCUAUGG RNA 2: GGGAAUGGAUCCACAUCUACGAAUUCGACCCAUAGAGAGGUUAUCCGCUCAUUGAGAUCGGAAGAGCACACGU	14.5 ± 4
target 1 MT 5'PFS GGA 3'PFS UCU (mixed) RNA 1: CACCCGUGCAAAAAUGCAGGGGUCUAAAACUGAGCGGAUAACCUCUCUAUGG RNA 2: GGGAAUGGAUCCACAUCUACGAAUUCGGACCAUAGAGAGGUUAUCCGCUCAUCUAGAUCGGAAGAGCACACGU	13.5 ± 2.5
target 1 MT 5'PFS GCU 3'PFS UUA (mixed) RNA 1: CACCCGUGCAAAAAUGCAGGGGUCUAAAACUGAGCGGAUAACCUCUCUAUGG RNA 2: GGGAAUGGAUCCACAUCUACGAAUUCGCUCCAUAGAGAGGUUAUCCGCUCAUUAAGAUCGGAAGAGCACACGU	22 ± 5
